In patent publication US20120219551A1 (MacroGenics, published 2012):

Molecular target: T1, soluble dimeric FcγRIIB-Fc fusion protein (extracellular domain of FcγRIIB fused to hinge-CH2-CH3 of human … (human, UniProt P31994 43-217))
T1 construct: extracellular domain; also called FcRIIB-Fc; 2bfcagl; not shown: human IgG2 hinge-CH2-CH3
T1 sequence (looked up): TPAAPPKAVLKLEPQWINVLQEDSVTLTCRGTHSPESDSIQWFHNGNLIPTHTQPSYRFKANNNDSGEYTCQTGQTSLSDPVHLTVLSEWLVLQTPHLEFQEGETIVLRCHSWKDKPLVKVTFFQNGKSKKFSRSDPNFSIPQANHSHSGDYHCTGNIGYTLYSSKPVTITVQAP
Test: SPR (BIAcore), Fc mutant in ch4-4-20, off rate relative to wild type

B1: ch4-4-20 MgFc66 (A330V, V427M) (antibody)
chain 1: not shown
chain 2: DVVMTQTPLSLPVSLGDQASISCRSSQSLVHSNGNTYLRWYLQKPGQSPKVLIYKVSNRFSGVPDRFSGSGSGTDFTLKISRVEAEDLGVYFCSQSTHVPWTFGGGTKLEIKRTVAAPSVFIFPPSDEQLKSGTASVVCLLNNFYPREAKVQWKVDNALQSGNSQESVTEQDSKDSTYSLSSTLTLSKADYEKHKVYACEVTHQGLSSPVTKSFNRGEC
Koff WT/Mut: 0.62
